Publication PMC12105683, “Generation of Conformation‐Specific Monoclonal Antibodies for Integral Membrane Proteins” (Current Protocols, 2025)
Numbering of substitutions follows the chain as printed.

Key:
Conditions in all cases: both partners purified
GluN1/GluN2A NMDAR = biological target: T1, GluN1/GluN2A NMDAR (Rattus norvegicus, UniProt P35439;G3V9C5); experiment: SEC; fluorescence-detection SEC (FSEC) shift assay; receptor incubated with mAbs individually and in combination at a 1:2 molar ratio; Superose 6 Increase 10/300 GL, 20 mM Tris, 150 mM NaCl, 0.075% LMNG
T1 construct: GluN1 subunit of the NMDA receptor; GluN2A subunit of the NMDA receptor; also called GluN1/N2A receptor; GluN1/N2A; source: HEK293S GnTI- cells/tSA201 cells, baculovirus transduction (pEG BacMam); copies: 2 + 2

GluN1 = biological target: T2, GluN1 (Xenopus laevis, UniProt A0A1L8F5J9); experiment: BLI; Octet RED384; mAb (25 µg/ml) captured on anti-mouse IgG Fc capture (AMC) biosensors, iGluR as analyte; TBS with 0.075% LMNG or 1 mM DDM; association 900 s, dissociation 1800 s; 1:1 model, global fit
T2 construct: also called GluN1 subunit; source: HEK293S GnTI- cells/tSA201 cells, baculovirus transduction (pEG BacMam)

TARP γ‐8 [1] = biological target: T3, TARP γ‐8 (Mus musculus, UniProt Q8VHW2); experiment: SEC; fluorescence-detection SEC (FSEC) shift assay; receptor incubated with mAbs individually and in combination at a 1:2 molar ratio; Superose 6 Increase 10/300 GL, 20 mM Tris, 150 mM NaCl, 0.075% LMNG
T3 construct: TARP γ-8, AMPAR auxiliary subunit; also called transmembrane AMPAR regulatory protein γ-8; source: HEK293S GnTI- cells/tSA201 cells, baculovirus transduction (pEG BacMam)

TARP γ‐2 [2] = biological target: T4, TARP γ‐2 (printed accession Q71RJ2 is rat; table …, UniProt Q71RJ2); experiment: BLI; Octet RED384; mAb (25 µg/ml) captured on anti-mouse IgG Fc capture (AMC) biosensors, iGluR as analyte; TBS with 0.075% LMNG or 1 mM DDM; association 900 s, dissociation 1800 s; 1:1 model, global fit
T4 construct: TARP γ-2 (stargazin), AMPAR auxiliary subunit; also called transmembrane AMPAR regulatory protein γ-2; source: HEK293S GnTI- cells/tSA201 cells, baculovirus transduction (pEG BacMam)

TARP γ‐2 [3] = biological target: T4, TARP γ‐2; experiment: SEC; fluorescence-detection SEC (FSEC) shift assay; receptor incubated with mAbs individually and in combination at a 1:2 molar ratio; Superose 6 Increase 10/300 GL, 20 mM Tris, 150 mM NaCl, 0.075% LMNG
TARP γ‐8 [4] = biological target: T3, TARP γ‐8; experiment: BLI; Octet RED384; mAb (25 µg/ml) captured on anti-mouse IgG Fc capture (AMC) biosensors, iGluR as analyte; TBS with 0.075% LMNG or 1 mM DDM; association 900 s, dissociation 1800 s; 1:1 model, global fit
GluN2A = biological target: T5, GluN2A (Rattus norvegicus, UniProt P35439;G3V9C5); experiment: as above
T5 construct: also called GluN2A subunit; source: HEK293S GnTI- cells/tSA201 cells, baculovirus transduction (pEG BacMam)

GluN3A = biological target: T6, GluN3A (Rattus norvegicus, UniProt P35439;Q9R1M7); experiment: as above
T6 construct: also called GluN3A subunit; source: HEK293S GnTI- cells/tSA201 cells, baculovirus transduction (pEG BacMam)

GluA1 AMPAR = biological target: T7, GluA1 AMPAR (Rattus norvegicus, UniProt P19490-2); experiment: as above
T7 construct: GluA1 subunit of the AMPA receptor; source: HEK293S GnTI- cells/tSA201 cells, baculovirus transduction (pEG BacMam)

GluA2 AMPAR = biological target: T8, GluA2 AMPAR (Rattus norvegicus, UniProt P19491); experiment: as above
T8 construct: GluA2 subunit of the AMPA receptor; source: HEK293S GnTI- cells/tSA201 cells, baculovirus transduction (pEG BacMam)

GluA3 AMPAR = biological target: T9, GluA3 AMPAR (Rattus norvegicus, UniProt P19492); experiment: as above
T9 construct: GluA3 subunit of the AMPA receptor; source: HEK293S GnTI- cells/tSA201 cells, baculovirus transduction (pEG BacMam)

[5] = biological target: T10, GFP-conjugated GluN1/GluN3A receptor (Rattus norvegicus, UniProt P35439;Q9R1M7); experiment: SEC; fluorescence-detection SEC (FSEC) shift assay; receptor incubated with mAbs individually and in combination at a 1:2 molar ratio; Superose 6 Increase 10/300 GL, 20 mM Tris, 150 mM NaCl, 0.075% LMNG
T10 construct: GluN1 subunit of the NMDA receptor; GluN3A subunit of the NMDA receptor; also called GluN1/GluN3A NMDAR; GluN1/N3A NMDAR; source: HEK293S GnTI- cells/tSA201 cells, baculovirus transduction (pEG BacMam); copies: 2 + 2

T4 sequence (Q71RJ2 whole entry, one chain of several): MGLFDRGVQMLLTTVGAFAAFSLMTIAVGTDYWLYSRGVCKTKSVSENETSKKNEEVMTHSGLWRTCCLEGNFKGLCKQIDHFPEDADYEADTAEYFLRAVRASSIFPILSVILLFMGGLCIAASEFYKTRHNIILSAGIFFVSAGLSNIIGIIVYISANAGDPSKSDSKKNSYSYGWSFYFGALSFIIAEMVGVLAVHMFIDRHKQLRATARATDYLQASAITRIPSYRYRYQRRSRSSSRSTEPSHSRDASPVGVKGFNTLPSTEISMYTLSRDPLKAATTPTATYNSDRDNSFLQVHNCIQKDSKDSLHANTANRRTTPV

B1: 5F11 mAb (antibody, V domains shown)
VH: QGQMQQSGAELVKPGASVKLSCKTSGFSFSTSYINWLKQKPGQSLEWIAWIYAGTDGTSYNQKFTDKAQLTVDTSSSTAYMQFSSLTTDDSAIYYCAREGIYYGNYAGFTYWGQGTLVTVSA
VL: DIVMTQSPSSLAVTAGEKVTMRCKSSQSLLWSVNQNNYLSWYQQKQGQPPKLLIYGASIRESWVPDRFTGSGSGTDFTLTISNVHAEDLAVYYCQHNHGSFLPYTFGGGTKLEIK
notes: IgG1/kappa; source: mouse hybridoma, bioreactor flask; purified (Protein A/G agarose)
binding result (GluN1/GluN2A NMDAR): binds | Kd (GluN1): 0.43 nM | koff (GluN1): 6.19e-05 s⁻¹ | kon (GluN1): 142000 M⁻¹ s⁻¹

B2: 4B2 mAb (antibody, V domains shown)
VH: EVQLQQSGAELVRSGASVKLSCTGSGFNIKDYYMHWVKQRPEQGLEWIGWIDPENGDTEYAPKFQGKATMTADTSSNTAYLHLSSLSSEDTAVYYCKGDYRYDDGGNYWGQGTSVTVSS
VL: DIQMTQTTSSLSASLGDRVTISCRASQDISNYLNWFQQKPDGTVKLLIYYTSRLHSGVPSRFSGSGSGTDYSLTINNLEQEDIATYFCQQGDSLPWTFGGGTKLEIK
notes: IgG2a/kappa; source: mouse hybridoma, bioreactor flask; purified (Protein A/G agarose)
binding result (TARP γ‐8 [1]): binds | Kd (TARP γ‐2 [2]): 4.5 nM | koff (TARP γ‐2 [2]): 0.000119 s⁻¹ | kon (TARP γ‐2 [2]): 50300 M⁻¹ s⁻¹

B3: 9B5 mAb (antibody, V domains shown)
VH: EVQLQQSGAELVRSGASVKLSCTTSGFNIKDYYMHWVKQRPEQGLEWIGWIDPENGDAEYAPKFQGKATMTADTSSNTAYLQLSSLTSEDTAVYYCNSGVAYWGQGTLVTVSA
VL: not shown
notes: as for B2
binding result (TARP γ‐2 [3]): binds | Kd (TARP γ‐8 [4]): 3.1 nM | koff (TARP γ‐8 [4]): 0.00103 s⁻¹ | kon (TARP γ‐8 [4]): 45900 M⁻¹ s⁻¹

B4: 3D2 mAb (antibody, V domains shown)
VH: QVQLQQSGAELMKPGASVKISCKATGYTFRSYWIEWLKQRPGHGLEWIGEILPGSGRTNYNEKFKGKATITADTSSNTAYMQLSSLTSEDSAVYYCTRSRGTMITREFTYWGQGALVTVSA
VL: DIVLTQSPASLAVSLGQRATISCRASESVEYYGTTLMQWYQQKPGQPPKLLIYAASNVDSGVPARFSGSGSGTDFSLNIHPVEEDDIAMYFCQQSRKVPSTFGGGTKLEIK
notes: as for B1
koff (GluN2A): < 1e-07 s⁻¹ | kon (GluN2A): 1.85e+06 M⁻¹ s⁻¹

B5: 5E3 mAb (antibody, V domains shown)
VH: QVQLQQPGAELVRPGASVKLSCKASGYSFTSYWMNWVKQRPGQGLEWIGMIHPSDSESRLNQKFKDKATLTVDKSSSTAYMQLRSPTSEDSAVYYCARSAYYRSFDYWGQGTTLTVSS
VL: DVLMTQTPLSLPVSLGDQASISCRSSQNIVHSNGNTYLEWYLQKPGQSPKLLIHKVSNRFSGVPDRFSGSGSGTDFTLKISRVEAEDLGVYYCFQGSHVPYTFGGGTKLEIK
notes: IgG1/kappa; source: purified (Protein A/G agarose)
Kd (GluN3A): 1.4 nM | koff (GluN3A): 1.99e-05 s⁻¹ | kon (GluN3A): 83700 M⁻¹ s⁻¹

B6: 11B8 mAb (antibody, V domains shown)
VH: EVKLLESGGGLVQPGGSLKLSCAASGFDFSEYWMSWVRQAPGKGLEWIGEINPDSSSIDYTPSLKDKIIISRDNAKKTLYLQLSKVRSEDTALYYCARPRGNYVVMDYWGQGTSVTVSS
VL: NIVLTQSPASLAVSLGQRATISCRASESVDSYGSSFVHWYQQKPGQPPKLLIFLASKLESGVPARFSGSGSRTDFTLTIDPVEADDAATYYCQQTNEDPYTFGGGTKLEIK
notes: IgG2b/kappa; source: mouse hybridoma, bioreactor flask; purified (Protein A/G agarose)
koff (GluA1 AMPAR): < 1e-07 s⁻¹ | kon (GluA1 AMPAR): 123000 M⁻¹ s⁻¹

B7: 15F1 mAb (antibody, V domains shown)
VH: QAQLKESGPGLVAPSQSLSITCTVSGFSLTNYGVHWVRQPPGKGLEWLGVIWAGGSTNYNSALMSRVSISKDNSKSQVFLKMNSLQTDDTVMYYCAREDYDYDWHFDVWGAGTTVTVSS
VL: B2 VL with D1E, N34S, F36Y, T69I, I83F, D92N, S93T, W96L, G100A, I106L
notes: as for B1
Kd (GluA2 AMPAR): < 0.001 nM | koff (GluA2 AMPAR): < 1e-07 s⁻¹ | kon (GluA2 AMPAR): 1.02e+06 M⁻¹ s⁻¹

B8: 5B2 mAb (antibody, V domains shown)
VH: EVQLQESGPSLVKPSQTLSLTCSVTGDSITSGYWNWIRKFPGNKLEYMGHISYRGSTYYNPSLKSRISITRDTSKNQYYLQLNSVTTEDTATYYCASRSYDEGFDSWGQGTTLTVSS
VL: NIVLTQSPASLAVSLGQRATISCRASESLDSYGNSFMHWYQQKPGQPPKLLIYLASNLESGVPARFSGSGSRTDFTLTIDPVEADDAATYYCQQNKEDLLTFGAGTKLELK
notes: as for B1
Kd (GluA3 AMPAR): < 0.001 nM | koff (GluA3 AMPAR): < 1e-07 s⁻¹ | kon (GluA3 AMPAR): 758000 M⁻¹ s⁻¹

B9: 3G9 mAb (antibody, V domains shown)
VH: KVQLQQSGAGLVKPGASVKLSCKASGYTFTDYIIHWIKQRSGQGLEWIGWFYPGSGSIKYNEKFKDKATLTADYSSSTVYMELSRLTSEDSAVYFCARHEHRGYYGDYPMDYWGQGTSVTVSS
VL: DIVMSQSPSSLAVSVGEKVTMSCKSSQSLLYSNNQKNYLAWYQQKPGQSPKLLIYWASTRESGVPDRFTGSGSGTDFTLTISSVKAEDLAVYYCQQYYSYPPYTFGGGTKLEIK
notes: IgG2a/kappa; source: purified (Protein A/G agarose)
binding result [5]: binds

B10: 2D3 mAb (antibody, V domains shown)
VH: EVQLVESGGGLVKPGGSLKLSCAASGFAFSTYDMSWVRQTPEKRLEWVAYISGGGGTTYYPGTVKGRFTISRDNAKNTLYLQMSSLKSEDTAMYYCARQGYGYSMDYWGQGTSVTVSS
VL: DVVMTQTPLSLPVSLGDQASISCRSSQSLVHSNGDTYLLWYLQKPGQSPKLLIYKVSNRFSGVPDRFSGSGSGTDFTLKISRVEAEDLGVYFCSQSTHVPRTFGGGTKLEIK
notes: IgG2b/kappa; source: purified (Protein A/G agarose)
binding result [5]: binds
